Laboratory results published in paper PMC9241813, “SGK1, a Serine/Threonine Kinase, Inhibits Prototype Foamy Virus Replication” (Microbiology Spectrum, 2022).

Molecular target: the molecule itself
Assay: cross-linking; HEK293T cells transfected with Flag-Tas and empty vector or HA-SGK1; lysate supernatant incubated with cross-linking buffer at room temperature for 30 min; Western blot

B1: prototype foamy virus Tas protein (Flag-Tas) (natural protein)
chain: MDSYEKEESVASTSGIQDLQTLSELVGPENAGEGELTIAEEPEENPRRPRRYTKREVKCVSYHAYKEIEDKHPQHIKLQDWIPTPEEMSKSLCKRLILCGLYSAEKASEILRMPFTVSWEQSDTDPDCFIVSYTCIFCDAVIHDPMPIRWDPEVGIWVKYKPLRGIVGSAVFIMHKHQRNCSLVKPSTSCSEGPKPRPRHDPVLRCDMFEKHHKPRQKRPRRRSIDNESCASSSDTMANEPGSLCTNPLWNPGPLLSGLLEESSNLPNLEVHMSGGPFWEEVYGDSILGPPSGSGEHSVL
notes: also called PFV Tas; Myc-Tas; source: HEK293T, transfected, in lysate
B1 was tested, and the “stoichiometry N” value was 2.
